Measured values: patent US20090053241A1 (Eli Lilly, published 2009)
One block for each binder: values may come before it.

What was measured:
mPDGFRβ/Fc [1] = target: T1, mPDGFRβ/Fc (mouse, UniProt P05622 32-530, limits assumed); assay: SPR (BIAcore), mPDGFRβ immobilized
T1 construct: The methods say 'mPDGFRβ' for ELISA plates and the BIAcore chip; also called murine PDGFRβ; mouse PDGFRβ; not shown: Fc part; detected with a goat anti-human Fc antibody
T1 sequence (looked up): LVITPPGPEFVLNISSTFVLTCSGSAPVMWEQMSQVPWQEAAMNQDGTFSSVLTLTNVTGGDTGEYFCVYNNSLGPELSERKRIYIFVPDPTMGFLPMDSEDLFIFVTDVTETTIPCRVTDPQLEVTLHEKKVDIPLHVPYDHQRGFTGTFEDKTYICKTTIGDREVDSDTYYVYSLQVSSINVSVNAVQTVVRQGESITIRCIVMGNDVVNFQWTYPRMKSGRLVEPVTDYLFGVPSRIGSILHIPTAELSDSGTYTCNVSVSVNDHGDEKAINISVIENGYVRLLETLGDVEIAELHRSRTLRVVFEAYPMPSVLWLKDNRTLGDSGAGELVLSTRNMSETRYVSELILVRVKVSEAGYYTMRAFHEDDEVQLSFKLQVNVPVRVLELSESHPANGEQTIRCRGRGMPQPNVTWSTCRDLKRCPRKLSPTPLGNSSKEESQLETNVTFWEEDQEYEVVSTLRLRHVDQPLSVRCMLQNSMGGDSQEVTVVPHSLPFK
Procedure: Antibody affinity determination. […] Sensorgrams were obtained at each concentration and were evaluated using the program, BIA Evaluation 2.0. The affinity constant, Kd, was calculated from the ratio of dissociation rate (koff)/association rate (kₒₙ) (Lu, D. et al., 2002; Zhu, Z. et al., 1998; Loizos, N. et al., 2005).

[2] = target: T2, human PDGFRβ (soluble recombinant protein) (human, UniProt P09619 33-530, limits assumed); assay: ELISA, panel 'BINDING TO hPDGFRβ'
T2 construct: the construct is not described; also called hPDGFRβ
T2 sequence (P09619 33-530 limits assumed): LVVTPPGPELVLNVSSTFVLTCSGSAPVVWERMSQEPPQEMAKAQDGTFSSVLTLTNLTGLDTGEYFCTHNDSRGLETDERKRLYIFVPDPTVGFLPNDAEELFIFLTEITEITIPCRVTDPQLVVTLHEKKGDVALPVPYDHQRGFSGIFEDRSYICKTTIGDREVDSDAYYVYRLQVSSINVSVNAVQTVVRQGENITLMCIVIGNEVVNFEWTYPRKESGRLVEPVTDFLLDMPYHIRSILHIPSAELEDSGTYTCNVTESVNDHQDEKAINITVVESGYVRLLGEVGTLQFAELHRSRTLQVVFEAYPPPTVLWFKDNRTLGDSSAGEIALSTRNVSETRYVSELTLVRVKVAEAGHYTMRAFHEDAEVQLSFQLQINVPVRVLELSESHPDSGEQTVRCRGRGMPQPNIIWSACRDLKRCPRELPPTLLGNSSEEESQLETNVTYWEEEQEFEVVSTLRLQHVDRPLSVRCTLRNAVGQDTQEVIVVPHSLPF

mPDGFRβ/Fc [3] = target: T1, mPDGFRβ/Fc; assay: ELISA, panel 'BINDING TO mPDGFRβ'
mPDGFRβ/Fc [4] = target: T1, mPDGFRβ/Fc; assay: direct binding ELISA on mPDGFRβ/Fc-coated plates (printed as IC50; FIG. 1A)
Procedure: (§1) Plate-bound antibodies were detected with a goat anti-human-κ antibody-HRP. […] IMC-1121 is an antibody directed against human VEGFR2. Data represent the mean±SD of triplicate samples.
(§2) Quantitative receptor binding and blocking assays. […] The plates were then incubated at RT for an additional 1 h with a goat anti-human-κ antibody-horse radish peroxidase (HRP) conjugate (Jackson ImmunoResearch, West Grove, Pa.). The plates were washed and developed as previously described (Lu, D. et al., 2002; Zhu, Z. et al., 1998). […] After washing 3 times with PBST, the plates were incubated with a goat anti-human Fc antibody-HRP conjugate (Jackson ImmunoResearch) for 1 h, and developed as described (Lu, D. et al., 2002; Zhu, Z. et al., 1998; Loizos, N. et al., 2005).

mPDGFRβ/Fc [5] = target: T1, mPDGFRβ/Fc; assay: blocking ELISA: antibody mixed with mPDGFRβ/Fc, PDGF-BB-coated plates (FIG. 1B)
Procedure: as §1, §2

mPDGFRβ/Fc [6] = target: T1, mPDGFRβ/Fc; assay: blocking ELISA, panel 'BLOCKING PDGF-BB BINDING TO mPDGFRβ'; blocked ligand PDGF-BB
mPDGFRβ/Fc [7] = target: T1, mPDGFRβ/Fc; assay: blocking ELISA: Fab mixed with mPDGFRβ/Fc, PDGF-BB-coated plates (FIG. 1B)
Procedure: as §1, §2

mPDGFRβ/Fc [8] = target: T1, mPDGFRβ/Fc; assay: ELISA on mPDGFRβ/Fc-coated plate (1 µg/ml), detection with goat anti-human-κ antibody-HRP
Procedure: as §1, §2

[9] = target: mouse PDGFRβ on cells (NIH/3T3, D122, 4T1, B16) (mouse, UniProt P05622 32-1098); assay: cell-based or functional assay
[10] = target: human PDGFRβ, cell-surface-expressed receptor on human tumor cell lines (human, UniProt P09619 33-1106); assay: cell-based or functional assay
Chain of human PDGFRβ, cell-surface-expressed receptor on human tumor cell lines (P09619 33-1106): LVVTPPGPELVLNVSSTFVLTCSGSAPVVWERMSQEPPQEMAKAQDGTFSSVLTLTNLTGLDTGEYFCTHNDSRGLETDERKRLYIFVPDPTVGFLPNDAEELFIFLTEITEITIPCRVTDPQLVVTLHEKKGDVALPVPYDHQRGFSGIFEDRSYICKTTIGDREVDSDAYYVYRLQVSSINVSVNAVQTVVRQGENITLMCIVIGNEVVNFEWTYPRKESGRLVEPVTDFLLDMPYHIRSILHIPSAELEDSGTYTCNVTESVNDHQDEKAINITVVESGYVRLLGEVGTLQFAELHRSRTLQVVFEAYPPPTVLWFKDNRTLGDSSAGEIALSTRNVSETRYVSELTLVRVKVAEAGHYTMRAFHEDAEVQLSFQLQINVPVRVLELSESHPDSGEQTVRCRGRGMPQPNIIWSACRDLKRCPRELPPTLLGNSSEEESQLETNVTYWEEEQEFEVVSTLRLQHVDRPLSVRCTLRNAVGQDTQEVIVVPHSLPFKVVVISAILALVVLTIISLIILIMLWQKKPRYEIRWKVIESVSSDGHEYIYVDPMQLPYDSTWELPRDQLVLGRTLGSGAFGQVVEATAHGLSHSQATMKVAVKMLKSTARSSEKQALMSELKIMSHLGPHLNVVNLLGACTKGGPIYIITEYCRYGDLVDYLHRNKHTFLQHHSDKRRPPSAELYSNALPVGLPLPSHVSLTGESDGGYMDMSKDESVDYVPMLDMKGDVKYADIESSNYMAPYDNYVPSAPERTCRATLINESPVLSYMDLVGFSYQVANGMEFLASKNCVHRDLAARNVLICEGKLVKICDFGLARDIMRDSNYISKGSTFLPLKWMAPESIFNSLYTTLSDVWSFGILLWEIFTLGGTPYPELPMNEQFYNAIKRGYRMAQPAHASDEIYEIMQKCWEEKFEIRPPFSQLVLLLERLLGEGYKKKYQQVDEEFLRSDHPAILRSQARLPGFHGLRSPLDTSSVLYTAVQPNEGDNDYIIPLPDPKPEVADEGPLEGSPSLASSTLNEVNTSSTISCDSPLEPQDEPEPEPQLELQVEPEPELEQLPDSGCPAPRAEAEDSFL

[11] = target: T2, human PDGFRβ (soluble recombinant …); assay: blocking of PDGF-BB binding to hPDGFRβ (FIG. 6)
mPDGFRβ/Fc [12] = target: T1, mPDGFRβ/Fc; assay: blocking of PDGF-BB binding to mPDGFRβ (FIG. 6)
h5β [13] = target: T3, h5β (human, UniProt P09619 33-530, limits assumed); assay: ELISA (OD450), panel '2C5 BINDING TO PDGFRβ/α CHIMERAS'; axis 'CO…ON (nM)', titrated species not stated
T3 construct: domain: domains 1-5 (read from the label); read as human PDGFRβ with all five domains
T3 sequence (P09619 33-530 limits assumed): as the sequence (P09619 33-530 limits assumed) above

h5β [14] = target: T3, h5β; assay: ELISA (OD450), panel '2C5 BINDING TO hPDGFRβ DELETIONS'; axis 'CO…ON (nM)', titrated species not stated
[15] = target: T4, β1-2 (shorter version of PDGFRβ, D1D2); assay: as above
T4 construct: domain: D1D2

[16] = target: T5, β1-3 (shorter version of PDGFRβ, D1D2D3); assay: as above
T5 construct: domain: D1D2D3

B1: 1B3 IgG (full-length human anti-mouse PDGFRβ antibody) (antibody, V domains shown)
VH: QVQLQESGGGLVKPGGSLRLSCAASGFTFSSYSMNWVRQAPGKGLEWVSSISSSSSYIYYADSVKGRFTISRDNSKNTLYLQMNSLRAEDTAVYYCAKGGRPLLVFDFWGQGTLVTVS
VL: EIVMTQSPGTLSLSPGERATLSCRASQSVSSSYLAWYQQKPGQAPRLLIYDASKRATGIPARFSGSGSGTDFTLTISTLESEDSAVYYCQQRGYWPPITFGQGTRLEIKR
notes: also called 1B3 antibody; anti-mPDGFRβ antibody 1B3
Kd (mPDGFRβ/Fc [1]): 0.09 nM
fold increase in affinity over its Fab form (mPDGFRβ/Fc [1]): ~57 times
binding result [2]: no binding (tested: about 1e-8 M)
EC50 (read off the curve) (mPDGFRβ/Fc [3]): ~0.07 nM
EC50 (mPDGFRβ/Fc [4]): 0.34 nM
IC50 (mPDGFRβ/Fc [5]): 1.2 nM
IC50 (mPDGFRβ/Fc [6]): 0.37 nM

B3: 1121 IgG (antibody, V domains shown)
VH: EVQLVQSGGGLVKPGGSLRLSCAASGFTFSSYSMNWVRQAPGKGLEWVSSISSSSSYIYYADSVKGRFTISRDNAKNSLYLQMNSLRAEDTAVYYCARVTDAFDIWGQGTMVTVSS
VL: DIQMTQSPSSVSASIGDRVTITCRASQGIDNWLGWYQQKPGKAPKLLIYDASNLDTGVPSRFSGSGSGTYFTLTISSLQAEDFAVYFCQQAKAFPPTFGGGTKVDIK
notes: The sheet prints '1121 IgG'; also called IMC-1121; antibody directed against human VEGFR2
binding result (mPDGFRβ/Fc [8]): no binding (tested: 10 nM)

Other lines, results leading:

Kd (mPDGFRβ/Fc [1]): 5.1 nM
IC50 (mPDGFRβ/Fc [7]): 4.1 nM
EC50 (mPDGFRβ/Fc [4]): 1.3 nM
B2: 1B3 Fab (Fab, V domains shown)
VH: B1 VH
VL: B1 VL
notes: also called 1B3 Fab fragment; clone 1B3

PDGFRβ phosphorylation in mouse NIH/3T3 and D122 cell lines, IC50 [9]: < 1.8 µg/mL
PDGFRβ phosphorylation in human Caki-1 tumor cells, IC50 [10]: < 1.8 µg/mL
EC50 (read off the curve) [2]: ~0.1 nM
EC50 (read off the curve) (mPDGFRβ/Fc [3]): ~0.1 nM
IC50 [11]: 0.55 nM
IC50 (mPDGFRβ/Fc [12]): 0.35 nM
EC50 (read off the curve) (h5β [13]): ~0.05 nM
EC50 (read off the curve) (h5β [14]): ~0.06 nM
EC50 (read off the curve) [15]: ~0.1 nM
EC50 (read off the curve) [16]: ~0.07 nM
B4: 2C5 (human anti-PDGFRβ antibody) (antibody, V domains shown)
VH: QVQLVQSGAEVKKPGSSVKVSCKASGGTFSSYAISWVRQAPGQGLEWMGRIIPILGIANYAQKFQGRVTITADKSTSTAYMELSSLRSEDTAVYYCARDMGSRNYYYFYWGQGTLVTVSS
VL: EIVLTQSPATLSLSPGERATLSCRASQSVGRYLAWYQQKPGQAPRLLIYGASNRATGIPARFSGSGSGTDFTLTISSLEPEDFAVYYCQQRSNWPLTFGGGTKVEIKR
notes: also called 2C5 antibody; anti-PDGFRβ antibody 2C5
